We go through 3 molecules from patent publication US20130323248A1 (published 2013).

B1: anti-DLL-4 antibody C10 (antibody, V domains shown)
VH: QVQLVESGAEVKKPGASVKVSCKASGYTFTSYYMHWVRQAPQGLEWMGIINPSGGSTSYAQKFQGRVTMTRDTSTNTVYMELSSLRSEDTAVYYCARDVWGGYFDYWGQGTLVTVSS
VL: QSVLTQPASVSGSPGQSITISCTGTSSDVGGYNYVSWYQQHPGKAPKLMIYDVTNRPSGVSNRFSGSKSGNTASLTISGLQAEDEADYYCSSYTSSSTVIFGGGTKLTVL
B2: anti-DLL-4 antibody C3 (antibody, V domains shown)
VH: QVQLVQSGSELKKPGASVKVSCKASGYTFTSYYMHWVRQVPGQGLEWMGIINPSGGSTSYAQKFQGRVTMTRDTSTSTVYMELSSLRSEDTAVYYCATDYYDSSGYVDFDYWGQGTLVTVSS
VL: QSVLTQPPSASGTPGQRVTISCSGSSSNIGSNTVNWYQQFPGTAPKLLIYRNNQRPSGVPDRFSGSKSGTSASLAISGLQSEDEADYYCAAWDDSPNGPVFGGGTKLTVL
B3: anti-DLL-4 antibody G6 (antibody, V domains shown)
VH: EVQLVESGGSLVQPGGSLRLSCAASGFTFSNGWMTWLRQAPGKGLEWVATIKPDGSDTAYVESVKGRFTISRDNAKNLLYLQMDSLRGDDTAVYFCARDLAYNAFDIWGQGTMVTVSS
VL: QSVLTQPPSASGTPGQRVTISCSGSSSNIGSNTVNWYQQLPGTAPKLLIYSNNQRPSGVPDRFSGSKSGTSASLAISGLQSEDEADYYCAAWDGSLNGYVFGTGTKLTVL

For the first assay, the target named is T1, human DLL-4 expressed on the surface of CHO-K1 cells (CHO-DLL-4 cells) (human, UniProt Q9NR61 27-685). Description: flow cytometry blocking of soluble Notch-1 binding. On the technique in general: Flow cytometry measures light scatter and fluorescence of single cells or particles in a stream.
By IC50 is commonly meant the concentration that inhibits the measured activity by half. A high value points to a need for much substance. In the case of B1, the 50% inhibitory concentration (IC50) was 676 pM.

Consider B2, for which the half-maximal inhibitory concentration (IC50) was found to be 364 pM.

In turn, B3 had an IC50 of 286 pM.

For the next assay, the target named is T2, recombinant human DLL4 (rhDLL4) (human, UniProt Q9NR61 27-524). In words: Biacore SPR. For orientation: Surface plasmon resonance follows binding to a sensor surface in real time, without labels.
Turning to B1, the Ka was determined as 8.49e+08 M⁻¹.

B2: the Ka came out at 1.13e+09 M⁻¹.

Regarding B3, the Ka turned out to be 8.72e+08 M⁻¹.

The next assay addresses T1, human DLL-4 expressed on the surface of …. In words: flow cytometry.
As usually defined, the EC50 is the concentration at which the effect is half-maximal. Lower therefore signals an effect from little substance. B1: the EC50 is 216 pM.

Regarding B2, a half-maximal response (EC50) required 107 pM.

Consider B3, for which a half-maximal effect (EC50) was put at 305 pM.

In another assay the target is T2, recombinant human DLL4 (rhDLL4). In words: Biacore SPR. The source holds these as a separate data set.
What is called Kd is the free concentration of one partner at which half of the binding sites on the other are occupied at equilibrium, for simple one-to-one binding. As for B1, the Kd stood at 1180 pM.

Turning to B2, the dissociation constant Kd worked out at 884 pM.

Consider B3, for which the Kd was found to be 1150 pM.
